Measurements as given in IntAct's records for PubMed 23890821.

B1: Protein Vpu (Human immunodeficiency virus type 1 group M subtype B (isolate HXB2) (HIV-1)), P05919 (parent)
chain: MQPIPIVAIVALVVAIIIAIVVWSIVIIEYRKILRQRKIDRLIDRLIERAEDSGNESEGEISALVEMGVEMGHHAPWDVDDL

Variants of: B1
Conditions: with cd4_human CD4, P01730

Variant | effect of a mutation on the interaction
I18F;V22F;V26L | decreasing interaction strength
